Results reported in patent publication US12458618B2, “Compounds and methods for the detection of TRPV-6 cancers and drug delivery” (Soricimed Biopharma Inc., priority 2009, dated 2025).
Where no end group is shown, it is not given here. Cy5.5 maleimide = Cy5.5 label attached to cysteine thiol by maleimide-activated reaction

How the values were obtained:
TRPV6 [1] = target: T1, TRPV6 (Homo sapiens, UniProt Q9H1D0); assay: Equilibrium dissociation constant (Kd) in an LNCaP model; format: binding; design: endogenous in cells; host or cells: LNCaP
T1 sequence (Q9H1D0 1-765): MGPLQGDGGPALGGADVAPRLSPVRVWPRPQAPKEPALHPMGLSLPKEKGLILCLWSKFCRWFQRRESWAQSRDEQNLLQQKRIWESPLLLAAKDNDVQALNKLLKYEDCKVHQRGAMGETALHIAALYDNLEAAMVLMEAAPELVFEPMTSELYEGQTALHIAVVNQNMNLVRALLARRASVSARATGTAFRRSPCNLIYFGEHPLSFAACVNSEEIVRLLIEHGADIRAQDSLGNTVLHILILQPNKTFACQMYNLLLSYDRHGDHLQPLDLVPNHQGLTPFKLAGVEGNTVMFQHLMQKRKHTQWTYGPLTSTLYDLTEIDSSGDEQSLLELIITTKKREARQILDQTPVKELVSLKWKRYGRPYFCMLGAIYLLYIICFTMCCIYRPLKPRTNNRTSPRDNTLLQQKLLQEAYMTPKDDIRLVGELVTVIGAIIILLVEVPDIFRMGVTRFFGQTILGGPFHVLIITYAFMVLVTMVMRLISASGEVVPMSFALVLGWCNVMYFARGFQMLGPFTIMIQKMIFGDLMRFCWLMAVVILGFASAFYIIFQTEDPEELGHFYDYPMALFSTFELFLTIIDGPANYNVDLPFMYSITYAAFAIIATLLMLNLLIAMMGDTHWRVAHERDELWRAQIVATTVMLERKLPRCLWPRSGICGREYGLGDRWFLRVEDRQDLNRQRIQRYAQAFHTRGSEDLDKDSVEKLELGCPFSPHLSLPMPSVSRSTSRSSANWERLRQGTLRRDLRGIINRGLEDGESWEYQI
Source text: As noted above, a TRPV6-binding peptide of the invention will have calcium channel binding activity. The peptides having such activity are readily identified with any known assays suitable for measuring binding of the peptides with TRPV6. For example, in one embodiment, a peptide having calcium channel inhibition activity is optionally identified by determining that the peptide reduces calcium channel activity by reducing (i.e., partially or fully inhibiting) the flow of calcium through calcium channels. TRPV6-binding activity can also be measured using methods such as: internalized calcifluors (such as FURA-2 am); whole cell patch clamping to measure inhibition calcium currents electrophysiologically; equilibrium binding assays using peptides labeled with detectable tags such as radioactive or fluorescent tags; and/or NMR determination of ‘bound’ and ‘unbound’ peptides. In some embodiments, the TRPV6-binding peptides also have i) calcium channel blocking and ii) lack of paralytic activity.
Calcium channel binding activity is optionally identified by using a readily available cell line (e.g. human embryonic kidney cell lines-HEK293) transfected with an expression vector for TRPV6. Such transfected cells are readily aliquoted and stored (typically −80° C.) until required. […]

[2] = tested on: ovarian TRPV6-rich tumor (SKOV-3 cells); assay: SorC27-cy5.5 in mice xenografted with SKOV-3 tumor (Example 9); format: in vivo; conditions: SKOV-3 xenograft
Experimental: Mice xenografted with an ovarian TRPV6-rich tumor (SKOV-3 cells) are injected with the fluorescently-labeled TRPV6-binding peptide SorC27-cy5.5.

TRPV6 [3] = target: T1, TRPV6; assay: Co-localization with TRPV6 antibody in HEK-293 cells transfected with a TRPV6 expression vector; format: cell-based
Experimental: HEK-293 cells were transfected with a TRPV6 expression vector and incubated with fluorescently labeled antibodies to the N-terminal peptides of TRPV6 as well as fluorescently labeled SorC27 (SorC27-cy5.5). HEK-293 cells that were not transfected with a TRPV6 expression vector were also incubated with fluorescently labeled anti-TRPV6 and SorC27-cy5.5 as a negative control (FIG. 6A).

[4] = Tissue distribution of Cy5.5-labeled peptides after i.v. injection, optical imaging; format: in vivo, CD1 mice
Source text: SorC13 and SorC27 were labeled with the near-infrared probe, Cy5.5. SorC13 was labeled at lysine-1 and lysine-8 with the infrared fluorescent probe cy5.5 through reaction with Cy5.5 NHS ester-activated process. SorC27 was labeled at the single cysteine thiol with Cy5.5 maleimide-activated reaction. The labeled peptides were purified with a combination of size exclusion chromatography and HPLC. The label, Cy5.5, fluoresces in the infra-red region after excitation with a scanning laser. The low energy laser is able to penetrate the animal to about 1 cm and, thus, by scanning prone and supine positions, the presence of the tagged peptides can be quantified in three dimensions.
Cy5.5-labeled peptides were intravenously injected into CD1 mice (4 for each compound) at 100 μg per animal in 100 μL, and animals were imaged live using an optical imaging system, Optix explorer (GE Healthcare Systems) at different time points (30 min, 90 min, 4 h). […] The bio-distribution of the labeled peptides in different organs and tissues were visualized and relatively quantified by optical imaging analysis. This protocol allows for visualization of the location of the labeled peptides and how the location changes over time. […] Nodes that accumulated the labeled peptides are indicated by line 1 (superfacial cervical nodes), line 4 (axillary nodes), line 5 (brachial nodes), line 8 (mesenteric nodes) and line 9 (inguinal nodes). FIGS. 2, 3 and 4 show the amounts of labeled peptides in various organs ex vivo.

[5] = tested on: prostate (DU145 cells) tumors; assay: Localization of SorC27-cy5.5 to xenografted prostate tumors in vivo (optical imaging); design: species or system nude CD1 mice; conditions: 100 μg intraperitoneally, DU145 prostate xenograft
Experimental: (§1) Mice xenografted with a TRPV6-rich ovarian (SKOV-3 cells) and prostate (DU145 cells) tumors were injected (intraperitoneally) with the fluorescently-labeled TRPV6-binding peptide SorC27-cy5.5. SorC27 was labeled with the near-infrared probe Cy5.5 at the single cysteine thiol using a Cy5.5 maleimide-activated reaction. The labeled peptides were purified with a combination of size exclusion chromatography and HPLC. Cy5.5, fluoresces in the infra-red region after excitation with a scanning laser. The low energy laser is able to penetrate the animal to about 1 cm and, thus, by scanning, the presence of the tagged peptides can be quantified in three dimensions. Cy5.5-labeled peptides were intraperitoneally injected into nude CD1 mice at 100 μg per animal, and animals were imaged live using an optical imaging system, Optix explorer (GE Healthcare Systems) at different time points (30 min, 90 min, 4 h).

[6] = tested on: TRPV6-rich ovarian (SKOV-3 cells) tumors; assay: Localization of SorC27-cy5.5 to xenografted ovarian tumors in vivo (optical imaging); design: species or system nude CD1 mice; conditions: 100 μg intraperitoneally, SKOV-3 ovarian xenograft
Experimental: as §1

TRPV6 [7] = target: T1, TRPV6; assay: Co-localization of SorC27-cy5.5 and fluorescently labeled TRPV6 antibodies in cancer cell lines; format: cell-based; design: endogenous in cells; host or cells: PC-3, T 47D, SKOV-3
Source text: The level of TRPV6 immunofluorescence and SorC27-cy5.5 fluorescence are both increased in the transfected cells with increased TRPV6 expression shown in the B1-B3 series of FIG. 7 compared to the cells in the A1-A3 series of FIG. 7.
The level of TRPV6 immunofluorescence and SorC27-cy5.5 fluorescence are both increased in the transfected cells with greater TRPV6 expression shown in the B1-B3 series of FIG. 8 compared to the cells in the A1-A3 series of FIG. 8.
The level of TRPV6 immunofluorescence and SorC27-cy5.5 fluorescence are both increased the transfected cells with greater TRPV6 expression shown in the B1-B3 series of FIG. 9 compared to the cells in A1-A3 series of FIG. 9.

TRPV6 [8] = target: T1, TRPV6; assay: Fluorescently tagged peptide on staged tumor tissue micro-arrays (Example 7); design: from tissue; host or cells: ovarian cancer tumour sections on tissue micro-arrays; conditions: Stage I to Stage IV tissue micro-arrays
Experimental: Fluorescently tagged TRPV6-binding peptides are useful to determine the stage of a tumor by direct incubation of Tissue Micro-Arrays (TMA) with the peptide reagent. SorC27-cy5.5 compound is incubated with cells from a subject and fluorescence levels are compared to levels from control staged tumor samples.

| Substance | Kd (TRPV6 [1]) | detection of xenografted tumor by fluorescence [2] | fluorescence in non-transfected cells (negative control) (TRPV6 [3]; HEK293 cells not transfected with the TRPV6 expression vector) | binding to TRPV6 (co-localization with anti-TRPV6) (TRPV6 [3]; HEK-293 cells transfected with TRPV6 expression vector) | predominant tissue localization ([4]; 100 μg i.v., CD1 mice, imaging up to 4 h) | detectability in tissues after perfusion ([4]; 24 hours, after perfusion to remove blood and lymph) | accumulation in lymph nodes (superfacial cervical, axillary, branchial, mesenteric, inguinal) ([4]; four hours after i.v. injection of 100 μg) | time tumor is clearly detected in vivo after injection [5] | time tumor is clearly detected in vivo after injection [6] | SorC27-cy5.5 fluorescence in TRPV6-transfected versus non-transfected cells (TRPV6 [7]; PC-3) | SorC27-cy5.5 fluorescence in TRPV6-transfected versus non-transfected cells (TRPV6 [7]; SKOV-3) | SorC27-cy5.5 fluorescence in TRPV6-transfected versus non-transfected cells (TRPV6 [7]; T 47D) | co-localization with TRPV6 antibody (TRPV6 [7]; breast cancer cell line T 47D) | co-localization with TRPV6 antibody (TRPV6 [7]; ovarian cancer cell line SKOV-3) | co-localization with TRPV6 antibody (TRPV6 [7]; prostate cancer cell line PC-3) | fluorescent signal with tumor stage (TRPV6 [8]) |
| --- | --- | --- | --- | --- | --- | --- | --- | --- | --- | --- | --- | --- | --- | --- | --- | --- |
| HPSKVDLPR [SorC9, HPSKVDLPR] | ~90 nM |  |  |  |  |  |  |  |  |  |  |  |  |  |  |  |
| SorC27-cy5.5: SorC27 labeled at the single cysteine thiol with Cy5.5 maleimide-activated reaction (EGKLSSNDTEGGLC(Cy5.5 maleimide)KEFLHPSKVDLPR) |  | detected in vivo | no fluorescence | bound to TRPV6 | localize predominantly in lymph nodes, lung, liver and kidney | still detectable in these tissues | Significant accumulation | at least 24 hours | at least 24 hours | increased | increased | increased | co-localization of SorC27-cy5.5 and TRPV6 | co-localization of SorC27-cy5.5 and TRPV6 | co-localization of SorC27-cy5.5 and TRPV6 | increase in the intensity of the fluorescent signal |
